Assay results: US20200276322A1 (ADMINISTRATORS OF THE TULANE EDUCATIONAL FUND, published 2020)
Square brackets hold non-standard residues; d marks the D form. Ends that are not written are not given here.

Biological target: GFP1-10 protein
Assay: cell-based or functional assay

Binder | split GFP assay, GFP fluorescence against Tat-GFP-11, 40 µM, 37 °C and 22 °C [fold] | split GFP assay, GFP fluorescence over background, 10 µM, 22 °C [fold] | split GFP assay, GFP fluorescence over background, 10 µM, 37 °C [fold]
G[dR][dK][dK][dR][dR][dQ][dR][dR][dR][dP][dP][dQ]RDHMVLHEYVNAAGIT [Tat(D)-GFP-11] | 2 |  | 
[dR][dK][dK][dR][dW][dF][dR][dR][dR][dR][dP][dK][dW][dK][dK]RDHMVLHEYVNAAGIT [CPP-1(D)-GFP-11] |  | 2.2 | 2.1
